We go through 3 proteins from paper PMC8612281, “Aromatic Dimer Dehydrogenases from Novosphingobium aromaticivorans Reduce Monoaromatic Diketones” (Applied and Environmental Microbiology, 2021).

Holding throughout (assay): purified protein
Substrate in data set [1]: COc1cc(C(O)C(CO)Oc2ccccc2OC)ccc1O
Conditions: 0.1 mM NAD+, 0.1 μM enzyme, 25 mM Tris-HCl pH 8, 25 mM NaCl, oxidation.

Substrate in data set [2]: COc1cc(C(O)C(C)O)ccc1O
The class given is biochemical, Novosphingobium aromaticivorans. Conditions: 0.1 mM NAD+, 0.1 μM enzyme, 25 mM Tris-HCl pH 8, 25 mM NaCl, oxidation.

Substrate in data set [3]: COc1cc(C(=O)C(C)=O)ccc1O
The data set is classed as biochemical, Novosphingobium aromaticivorans. Conditions: 0.1 mM NADH, 25 mM Tris-HCl pH 8, 25 mM NaCl, reduction of Cα ketone.

B1: LigL (Novosphingobium aromaticivorans DSM 12444) (protein)
chain: MGIETFAGRTAFVTGGASGIGLGIVKALARRDAFVVIADMRTDHISRALKALASAGLGESVAAVELDVTDRAAYASMARRMDEEFGGIDVLVNNAGVGVEGPILQATYPDWDFGLGVNLGGVVNGLQAMLPQMIAHGRGGHVVNTASLAATVVMPGHLAIYAAGKAAVLNLTENMRADLAGRGIGSSVLCPGFVRSNIHEAARNRPAHLREGSGFAASEQALSMRETGSEWMDPDAVGEMVADAILADQLYVITHGEFANRMRERAEALLAATPVCEMQF
Regarding B1, the Km in “purified protein [1]” was determined as 440 µM; in “purified protein [2]”, 1530 µM; in the data set “purified protein [3]” (0.01 μM enzyme), 3400 µM. Further, the catalytic constant (kcat) amounted to 0.12 s⁻¹ in the data set “purified protein [1]”, 0.03 s⁻¹ in the data set “purified protein [2]” and 1.44 s⁻¹ in “purified protein [3]” (0.01 μM enzyme).

B2: LigD (Novosphingobium aromaticivorans DSM 12444) (protein)
chain: MQSFENEIAFITGGASGAGFGQAQVFGRAGAKIVVADVRAEAVERAVAALKAEGIVAHGLVLDITDRQAYAGAADEVEQVFGAAPTLLFNTAGVNSFGPVEDTSYDDFDWIVGVNLGGVINGMVTFVPRMIASGRPGHIVTTSSLGGLMGSALAAPYSAAKAAVINLMESYRQGLDKHGIGVSVLCPANIKSNIAEASRLRPAQFGKSGYVENEESIASLHSIHQHGMDPVELAEHVKAGIVANQLYIIPYPEAKDGLRQHFDAIVDAVLPLEADPEGARARTEALNAWAADRARVFMEKNAAQKA
Take B2: in the data set “purified protein [1]”, the Km worked out at 70 µM and the catalytic constant (kcat) came to 0.2 s⁻¹. Moreover, in “purified protein [3]” (0.1 μM enzyme), the Michaelis-Menten constant (Km) amounted to 410 µM and the turnover number (kcat) worked out at 0.02 s⁻¹.

B3: LigN (Novosphingobium aromaticivorans DSM 12444) (protein)
chain: MQNLPGKTAFVTGGASGIGLGIAKALLGAGMNVTIADIRQDHLDSAVAELGGGERVLAVKLDVTNRDQFAKAADATEAKFGKIHLLVNNAGVAVVGPTELATFADWDWVMGVNVNGTINGIVTILPRILAHGEGGHIVCTASMSALVPVAGTTIYSAGKAAVTAMMECMRPELEGRGVICSAFCPGAVQSNIADAAKTRPAELADTGYAEADKRRAAGGNFMHLYQTKEQVGERVLEGILNDELYILTHAEFLTGVEERGLATTAAVQTHLPENPEYKETFAALFRNPAITDEIARQNKLKETRKAGVEA
Regarding B3, the Km was found to be 80 µM in “purified protein [1]” and 310 µM in the data set “purified protein [3]” (0.1 μM enzyme). Besides, the catalytic constant (kcat) was determined as 0.30 s⁻¹ in the data set “purified protein [1]” and 0.1 s⁻¹ in “purified protein [3]” (0.1 μM enzyme).
